The record followed here is patent US20070065819A1 (Takeda / Millennium, published 2007).

Where no end group is shown, it is not given here. The star is where a group is joined. For = O=C*

The target in this assay is T1, human FPRL1 (human, UniProt P25090 1-351).
T1 construct: Expressed in CHO cells (No. 8); also called human-derived FPRL1
T1 sequence: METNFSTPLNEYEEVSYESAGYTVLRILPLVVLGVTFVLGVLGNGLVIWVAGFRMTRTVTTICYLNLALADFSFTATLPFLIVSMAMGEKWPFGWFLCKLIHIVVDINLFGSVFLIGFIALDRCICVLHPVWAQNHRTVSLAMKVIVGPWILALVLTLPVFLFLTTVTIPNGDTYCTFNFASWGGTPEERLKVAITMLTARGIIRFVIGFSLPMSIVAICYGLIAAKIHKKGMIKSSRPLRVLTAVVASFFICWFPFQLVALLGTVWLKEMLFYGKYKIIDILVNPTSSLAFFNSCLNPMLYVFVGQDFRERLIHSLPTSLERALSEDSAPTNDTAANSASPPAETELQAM
Put plainly: competitive inhibition of binding of 125I-labeled compound to membrane fraction of human FPRL1-expressing CHO cells, filter trapping. As to the method:
Then, by reverse phase HPLC using TSKgel ODS-80TM CTR 4.6 x 100 mm column, a peak of labeled form, which was produced by the reaction, was fractionated. The fraction was mixed with an equal volume of assay buffer (50 mM Tris-HCI/pH7.5, 5 mM EDTA, 0.5 mM PMSF, 20 μg/ml leupeptine, 0.1 μtg/ml pepstatin A, 4 μg/ml E-64 (Peptide Institute), and 0.1% bovine serum albumin) and stored at −30° C. until use.
Human FPRL1-expressing CHO cells (No. 8) were cultivated, collected using PBS containing 5 mM EDTA from culture vessel, and suspended in assay buffer containing no bovine serum albumin, which is described above. Homogenization using Polytron homegenizer (Kinematica) at 18,000 rpm for 40 seconds was performed three times. After centrifugation (1000xg, 4° C., 10 minutes), supernatant was recovered. […]
Competitive inhibition test was carried out under the following conditions. […] After completely drying the filter, Microcinti 0 (Packard) was added to the filter, and a level of labeled form co-trapped with the membrane fraction on the filter was measured using Topcount (Pakard). Non-specific binding level was subtracted from each measured value. Then the ratio of reduced binding level by addition of test sample to the well with notest sample (total binding level), that is, the inhibition rate was calculated. Further, from dosage of test sample-inhibition curve, IC₅₀ was calculated (Table 1).

B1: human FPRL1 ligand P3 (hfCYOX-1(1-13)) (peptide)
peptide: For-MFADRWLFSTNHK
notes: Synthesized at Peptide Institute, Inc; also called human FPRL ligand P3
As a reminder, the IC50 is the concentration that gives 50% inhibition. Low readings indicate greater potency in that assay, high ones weaker potency in that assay. For the molecule B1, the concentration for half-maximal inhibition (IC50) worked out at 1.1 nM.

B2: porcine FPRL1 ligand P3 (pfCYOX-1(1-13)) (peptide)
peptide: For-MFVNRWLYSTNHK
notes: The purified fraction also held a Met(O) oxidant; also called porcine FPRL ligand P3; porcine intrinsic FPRL1 ligand P3
As to B2, the IC50 worked out at 0.15 nM. Compared with the last molecule, the IC50 is about 7.3-fold lower.
